According to patent US20260015399A1 (Boehringer Ingelheim, published 2026):
*1 amine or outer side, *2 acyl side, *3 side chain or, on linkers, in order; H or OH if unused. Side-chain parts run from the residue outwards. The star is where a group is joined. C18 diacid = O=C(O)CCCCCCCCCCCCCCCCC(=O)*; γGlu = O=C(O)[C@H](CCC(=O)[*:2])N[*:1]; Isovaleryl = CC(C)CC(=O)*; Ahx = NCCCCCC(=O)O

T1: human NPY2 receptor (human, UniProt P49146 1-381)
T1 construct: whole, on cells; also called hNPY2-R; hNPY2R
T1 sequence (looked up): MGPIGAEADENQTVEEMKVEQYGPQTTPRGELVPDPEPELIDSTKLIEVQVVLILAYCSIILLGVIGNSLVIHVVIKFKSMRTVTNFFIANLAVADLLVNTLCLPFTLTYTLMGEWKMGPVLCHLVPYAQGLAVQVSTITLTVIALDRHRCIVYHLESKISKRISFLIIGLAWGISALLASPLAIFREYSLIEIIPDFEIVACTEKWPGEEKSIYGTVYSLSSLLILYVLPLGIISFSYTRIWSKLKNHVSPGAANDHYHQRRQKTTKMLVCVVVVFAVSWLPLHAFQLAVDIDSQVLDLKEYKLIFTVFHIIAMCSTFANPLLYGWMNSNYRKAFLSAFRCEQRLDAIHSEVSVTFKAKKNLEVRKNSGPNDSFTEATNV

B1: Compound 39 (peptide)
peptide: Isovaleryl-APEK([Ahx-γGlu-C18 diacid])PEEDASPEALQEYYVSLRHYYNWLTRQRY-NH2
SMILES: CC(C)CC(=O)N[C@@H](C)C(=O)N1CCC[C@H]1C(=O)N[C@@H](CCC(=O)O)C(=O)N[C@@H](CCCCNC(=O)CCCCCNC(=O)CC[C@H](NC(=O)CCCCCCCCCCCCCCCCC(=O)O)C(=O)O)C(=O)N1CCC[C@H]1C(=O)N[C@@H](CCC(=O)O)C(=O)N[C@@H](CCC(=O)O)C(=O)N[C@@H](CC(=O)O)C(=O)N[C@@H](C)C(=O)N[C@@H](CO)C(=O)N1CCC[C@H]1C(=O)N[C@@H](CCC(=O)O)C(=O)N[C@@H](C)C(=O)N[C@@H](CC(C)C)C(=O)N[C@@H](CCC(N)=O)C(=O)N[C@@H](CCC(=O)O)C(=O)N[C@@H](Cc1ccc(O)cc1)C(=O)N[C@@H](Cc1ccc(O)cc1)C(=O)N[C@H](C(=O)N[C@@H](CO)C(=O)N[C@@H](CC(C)C)C(=O)N[C@@H](CCCNC(=N)N)C(=O)N[C@@H](Cc1c[nH]cn1)C(=O)N[C@@H](Cc1ccc(O)cc1)C(=O)N[C@@H](Cc1ccc(O)cc1)C(=O)N[C@@H](CC(N)=O)C(=O)N[C@@H](Cc1c[nH]c2ccccc12)C(=O)N[C@@H](CC(C)C)C(=O)N[C@H](C(=O)N[C@@H](CCCNC(=N)N)C(=O)N[C@@H](CCC(N)=O)C(=O)N[C@@H](CCCNC(=N)N)C(=O)N[C@@H](Cc1ccc(O)cc1)C(N)=O)[C@@H](C)O)C(C)C
B2: Compound 43 (peptide)
peptide: Isovaleryl-APAK([Ahx-γGlu-C18 diacid])PEAAAEPEELQRYYVSLRHYYNWLTRQRY-NH2
SMILES: CC(C)CC(=O)N[C@@H](C)C(=O)N1CCC[C@H]1C(=O)N[C@@H](C)C(=O)N[C@@H](CCCCNC(=O)CCCCCNC(=O)CC[C@H](NC(=O)CCCCCCCCCCCCCCCCC(=O)O)C(=O)O)C(=O)N1CCC[C@H]1C(=O)N[C@@H](CCC(=O)O)C(=O)N[C@@H](C)C(=O)N[C@@H](C)C(=O)N[C@@H](C)C(=O)N[C@@H](CCC(=O)O)C(=O)N1CCC[C@H]1C(=O)N[C@@H](CCC(=O)O)C(=O)N[C@@H](CCC(=O)O)C(=O)N[C@@H](CC(C)C)C(=O)N[C@@H](CCC(N)=O)C(=O)N[C@@H](CCCNC(=N)N)C(=O)N[C@@H](Cc1ccc(O)cc1)C(=O)N[C@@H](Cc1ccc(O)cc1)C(=O)N[C@H](C(=O)N[C@@H](CO)C(=O)N[C@@H](CC(C)C)C(=O)N[C@@H](CCCNC(=N)N)C(=O)N[C@@H](Cc1c[nH]cn1)C(=O)N[C@@H](Cc1ccc(O)cc1)C(=O)N[C@@H](Cc1ccc(O)cc1)C(=O)N[C@@H](CC(N)=O)C(=O)N[C@@H](Cc1c[nH]c2ccccc12)C(=O)N[C@@H](CC(C)C)C(=O)N[C@H](C(=O)N[C@@H](CCCNC(=N)N)C(=O)N[C@@H](CCC(N)=O)C(=O)N[C@@H](CCCNC(=N)N)C(=O)N[C@@H](Cc1ccc(O)cc1)C(N)=O)[C@@H](C)O)C(C)C
B3: Compound 45 (peptide)
peptide: Isovaleryl-APEK([Ahx-γGlu-C18 diacid])PEEIATPEELQRYYVSLRHYYNWLTRQRY-NH2
SMILES: CC[C@H](C)[C@H](NC(=O)[C@H](CCC(=O)O)NC(=O)[C@H](CCC(=O)O)NC(=O)[C@@H]1CCCN1C(=O)[C@H](CCCCNC(=O)CCCCCNC(=O)CC[C@H](NC(=O)CCCCCCCCCCCCCCCCC(=O)O)C(=O)O)NC(=O)[C@H](CCC(=O)O)NC(=O)[C@@H]1CCCN1C(=O)[C@H](C)NC(=O)CC(C)C)C(=O)N[C@@H](C)C(=O)N[C@H](C(=O)N1CCC[C@H]1C(=O)N[C@@H](CCC(=O)O)C(=O)N[C@@H](CCC(=O)O)C(=O)N[C@@H](CC(C)C)C(=O)N[C@@H](CCC(N)=O)C(=O)N[C@@H](CCCNC(=N)N)C(=O)N[C@@H](Cc1ccc(O)cc1)C(=O)N[C@@H](Cc1ccc(O)cc1)C(=O)N[C@H](C(=O)N[C@@H](CO)C(=O)N[C@@H](CC(C)C)C(=O)N[C@@H](CCCNC(=N)N)C(=O)N[C@@H](Cc1c[nH]cn1)C(=O)N[C@@H](Cc1ccc(O)cc1)C(=O)N[C@@H](Cc1ccc(O)cc1)C(=O)N[C@@H](CC(N)=O)C(=O)N[C@@H](Cc1c[nH]c2ccccc12)C(=O)N[C@@H](CC(C)C)C(=O)N[C@H](C(=O)N[C@@H](CCCNC(=N)N)C(=O)N[C@@H](CCC(N)=O)C(=O)N[C@@H](CCCNC(=N)N)C(=O)N[C@@H](Cc1ccc(O)cc1)C(N)=O)[C@@H](C)O)C(C)C)[C@@H](C)O
B4: Compound 42 (peptide)
peptide: Isovaleryl-APEK([Ahx-γGlu-C18 diacid])PEEPATPEELQRYYVSLRHYYNWLTRQRY-NH2
SMILES: CC(C)CC(=O)N[C@@H](C)C(=O)N1CCC[C@H]1C(=O)N[C@@H](CCC(=O)O)C(=O)N[C@@H](CCCCNC(=O)CCCCCNC(=O)CC[C@H](NC(=O)CCCCCCCCCCCCCCCCC(=O)O)C(=O)O)C(=O)N1CCC[C@H]1C(=O)N[C@@H](CCC(=O)O)C(=O)N[C@@H](CCC(=O)O)C(=O)N1CCC[C@H]1C(=O)N[C@@H](C)C(=O)N[C@H](C(=O)N1CCC[C@H]1C(=O)N[C@@H](CCC(=O)O)C(=O)N[C@@H](CCC(=O)O)C(=O)N[C@@H](CC(C)C)C(=O)N[C@@H](CCC(N)=O)C(=O)N[C@@H](CCCNC(=N)N)C(=O)N[C@@H](Cc1ccc(O)cc1)C(=O)N[C@@H](Cc1ccc(O)cc1)C(=O)N[C@H](C(=O)N[C@@H](CO)C(=O)N[C@@H](CC(C)C)C(=O)N[C@@H](CCCNC(=N)N)C(=O)N[C@@H](Cc1c[nH]cn1)C(=O)N[C@@H](Cc1ccc(O)cc1)C(=O)N[C@@H](Cc1ccc(O)cc1)C(=O)N[C@@H](CC(N)=O)C(=O)N[C@@H](Cc1c[nH]c2ccccc12)C(=O)N[C@@H](CC(C)C)C(=O)N[C@H](C(=O)N[C@@H](CCCNC(=N)N)C(=O)N[C@@H](CCC(N)=O)C(=O)N[C@@H](CCCNC(=N)N)C(=O)N[C@@H](Cc1ccc(O)cc1)C(N)=O)[C@@H](C)O)C(C)C)[C@@H](C)O
B5: Compound 44 (peptide)
peptide: Isovaleryl-APEK([Ahx-γGlu-C18 diacid])PEEDATPEELQRYYVGLRHYYNWLTRQRY-NH2
SMILES: CC(C)CC(=O)N[C@@H](C)C(=O)N1CCC[C@H]1C(=O)N[C@@H](CCC(=O)O)C(=O)N[C@@H](CCCCNC(=O)CCCCCNC(=O)CC[C@H](NC(=O)CCCCCCCCCCCCCCCCC(=O)O)C(=O)O)C(=O)N1CCC[C@H]1C(=O)N[C@@H](CCC(=O)O)C(=O)N[C@@H](CCC(=O)O)C(=O)N[C@@H](CC(=O)O)C(=O)N[C@@H](C)C(=O)N[C@H](C(=O)N1CCC[C@H]1C(=O)N[C@@H](CCC(=O)O)C(=O)N[C@@H](CCC(=O)O)C(=O)N[C@@H](CC(C)C)C(=O)N[C@@H](CCC(N)=O)C(=O)N[C@@H](CCCNC(=N)N)C(=O)N[C@@H](Cc1ccc(O)cc1)C(=O)N[C@@H](Cc1ccc(O)cc1)C(=O)N[C@H](C(=O)NCC(=O)N[C@@H](CC(C)C)C(=O)N[C@@H](CCCNC(=N)N)C(=O)N[C@@H](Cc1c[nH]cn1)C(=O)N[C@@H](Cc1ccc(O)cc1)C(=O)N[C@@H](Cc1ccc(O)cc1)C(=O)N[C@@H](CC(N)=O)C(=O)N[C@@H](Cc1c[nH]c2ccccc12)C(=O)N[C@@H](CC(C)C)C(=O)N[C@H](C(=O)N[C@@H](CCCNC(=N)N)C(=O)N[C@@H](CCC(N)=O)C(=O)N[C@@H](CCCNC(=N)N)C(=O)N[C@@H](Cc1ccc(O)cc1)C(N)=O)[C@@H](C)O)C(C)C)[C@@H](C)O
B6: Compound 41 (peptide)
peptide: Isovaleryl-APEK([Ahx-γGlu-C18 diacid])PEEDAEPEELQRYYTSLRHYYQWLTRQRY-NH2
SMILES: CC(C)CC(=O)N[C@@H](C)C(=O)N1CCC[C@H]1C(=O)N[C@@H](CCC(=O)O)C(=O)N[C@@H](CCCCNC(=O)CCCCCNC(=O)CC[C@H](NC(=O)CCCCCCCCCCCCCCCCC(=O)O)C(=O)O)C(=O)N1CCC[C@H]1C(=O)N[C@@H](CCC(=O)O)C(=O)N[C@@H](CCC(=O)O)C(=O)N[C@@H](CC(=O)O)C(=O)N[C@@H](C)C(=O)N[C@@H](CCC(=O)O)C(=O)N1CCC[C@H]1C(=O)N[C@@H](CCC(=O)O)C(=O)N[C@@H](CCC(=O)O)C(=O)N[C@@H](CC(C)C)C(=O)N[C@@H](CCC(N)=O)C(=O)N[C@@H](CCCNC(=N)N)C(=O)N[C@@H](Cc1ccc(O)cc1)C(=O)N[C@@H](Cc1ccc(O)cc1)C(=O)N[C@H](C(=O)N[C@@H](CO)C(=O)N[C@@H](CC(C)C)C(=O)N[C@@H](CCCNC(=N)N)C(=O)N[C@@H](Cc1c[nH]cn1)C(=O)N[C@@H](Cc1ccc(O)cc1)C(=O)N[C@@H](Cc1ccc(O)cc1)C(=O)N[C@@H](CCC(N)=O)C(=O)N[C@@H](Cc1c[nH]c2ccccc12)C(=O)N[C@@H](CC(C)C)C(=O)N[C@H](C(=O)N[C@@H](CCCNC(=N)N)C(=O)N[C@@H](CCC(N)=O)C(=O)N[C@@H](CCCNC(=N)N)C(=O)N[C@@H](Cc1ccc(O)cc1)C(N)=O)[C@@H](C)O)[C@@H](C)O

These binders were tested against T1, human NPY2 receptor (assay: RLB: displacement of 125I-PYY(1-36) from hNPY2R membranes).

Ki [nM]	Binder
2.73	B1
2.49	B2
6.17	B3
1.98	B4
5.86	B5
19.8	B6
